Experimental data published in US20100215670A1 (published 2010).

Assays:
[1] = target: T1, Ep-CAM (Epithelial Cell Adhesion Molecule) (UniProt P16422 24-314, limits assumed); assay: flow cytometry on CAL 27 cells (Ep-CAM-positive)
T1 construct: whole, on cells; Endogenous antigen on tumour cell lines; also called 17-1A; KSA
T1 sequence (looked up): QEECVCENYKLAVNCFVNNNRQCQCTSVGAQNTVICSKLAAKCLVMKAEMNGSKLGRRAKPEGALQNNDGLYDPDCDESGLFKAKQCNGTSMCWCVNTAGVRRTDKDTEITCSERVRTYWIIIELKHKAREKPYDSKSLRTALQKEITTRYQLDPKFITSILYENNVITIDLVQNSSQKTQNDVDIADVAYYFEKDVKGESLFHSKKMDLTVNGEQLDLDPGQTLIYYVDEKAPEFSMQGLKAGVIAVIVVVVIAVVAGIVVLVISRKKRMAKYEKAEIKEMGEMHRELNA

[2] = target: T1, Ep-CAM (Epithelial Cell Adhesion …); assay: flow cytometry on NIH:OVCAR-3 cells (Ep-CAM-positive)
[3] = target: T1, Ep-CAM (Epithelial Cell Adhesion …); assay: flow cytometry on CAL 27 cells (Ep-CAM-positive); one representative experiment
[4] = target: T1, Ep-CAM (Epithelial Cell Adhesion …); assay: flow cytometry on NIH:OVCAR-3 cells (Ep-CAM-positive); one representative experiment

B1: VB6-845-F-de-bouganin (Fab)
chain 1: HHHHHHEVQLVQSGPGLVQPGGSVRISCAASGYTFTNYGMNWVKQAPGKGLEWMGWINTYTGESTYADSFKGRFTFSLDTSASAAYLQINSLRAEDTAVYYCARFAIKGDYWGQGTLLTVSSASTKGPSVFPLAPSSKSTSGGTAALGCLVKDYFPEPVTVSWNSGALTSGVHTFPAVLQSSGLYSLSSVVTVPSSSLGTQTYICNVNHKPSNTKVDKKVEPKSC
chain 2: DIQMTQSPSSLSASVGDRVTITCRSTKSLLHSNGITYLYWYQQKPGKAPKLLIYQMSNLASGVPSRFSSSGSGTDFTLTISSLQPEDFATYYCAQNLEIPRTFGQGTKVELKRTVAAPSVFIFPPSDEQLKSGTASVVCLLNNFYPREAKVQWKVDNALQSGNSQESVTEQDSKDSTYSLSSTLTLSKADYEKHKVYACEVTHQGLSSPVTKSFNRGECTRHRQPRGWEQLYNTVSFNLGEAYEYPTFIQDLRNELAKGTPVCQLPVTLQTIADDKRFVLVDITTTSKKTVKVAIDVTDVYVVGYQDKWDGKDRAVFLDKVPTVATSKLFPGVTNRVTLTFDGSYQKLVNAAKADRKALELGVNKLEFSIEAIHGKTINGQEAAKFFLIVIQMVSEAARFKYIETEVVDRGLYGSFKPNFKVLNLENNWGDISDAIHKSSPQCTTINPALQLISPSNDPWVVNKVSQISPDMGILKFKSSK
notes: also called VB6-845L-F-de-bouganin
Median Fold (MF) increase [1]: 63.6 fold | Median Fold (MF) increase [2]: 130 fold

B2: VB6-845-F1R-de-bouganin (Fab)
chain 1: B1 chain 1
chain 2: DIQMTQSPSSLSASVGDRVTITCRSTKSLLHSNGITYLYWYQQKPGKAPKLLIYQMSNLASGVPSRFSSSGSGTDFTLTISSLQPEDFATYYCAQNLEIPRTFGQGTKVELKRTVAAPSVFIFPPSDEQLKSGTASVVCLLNNFYPREAKVQWKVDNALQSGNSQESVTEQDSKDSTYSLSSTLTLSKADYEKHKVYACEVTHQGLSSPVTKSFNRGECTRHRRKRSVYNTVSFNLGEAYEYPTFIQDLRNELAKGTPVCQLPVTLQTIADDKRFVLVDITTTSKKTVKVAIDVTDVYVVGYQDKWDGKDRAVFLDKVPTVATSKLFPGVTNRVTLTFDGSYQKLVNAAKADRKALELGVNKLEFSIEAIHGKTINGQEAAKFFLIVIQMVSEAARFKYIETEVVDRGLYGSFKPNFKVLNLENNWGDISDAIHKSSPQCTTINPALQLISPSNDPWVVNKVSQISPDMGILKFKSSK
notes: also called F1R linker construct
Median Fold (MF) increase [1]: 55 fold | Median Fold (MF) increase [2]: 112 fold

B3: VB6-845-CB1-CD-de-bouganin (Fab)
chain 1: B1 chain 1
chain 2: DIQMTQSPSSLSASVGDRVTITCRSTKSLLHSNGITYLYWYQQKPGKAPKLLIYQMSNLASGVPSRFSSSGSGTDFTLTISSLQPEDFATYYCAQNLEIPRTFGQGTKVELKRTVAAPSVFIFPPSDEQLKSGTASVVCLLNNFYPREAKVQWKVDNALQSGNSQESVTEQDSKDSTYSLSSTLTLSKADYEKHKVYACEVTHQGLSSPVTKSFNRGECQGVGFLGTQFFYNTVSFNLGEAYEYPTFIQDLRNELAKGTPVCQLPVTLQTIADDKRFVLVDITTTSKKTVKVAIDVTDVYVVGYQDKWDGKDRAVFLDKVPTVATSKLFPGVTNRVTLTFDGSYQKLVNAAKADRKALELGVNKLEFSIEAIHGKTINGQEAAKFFLIVIQMVSEAARFKYIETEVVDRGLYGSFKPNFKVLNLENNWGDISDAIHKSSPQCTTINPALQLISPSNDPWVVNKVSQISPDMGILKFKSSK
notes: also called CB1-CD construct
Median Fold (MF) increase [3]: 68 fold | Median Fold (MF) increase [4]: 110 fold
